Experimental data as given in publication PMC4449784 (2015).

T1: HIV-1 Nef VY8 variant with Leu at P4 peptide on HLA-B*35:01 (human)
T1 peptide: VPLLPMTY

T2: HIV-1 Nef VY8 variant with Val at P3 peptide on HLA-B*35:01 (human)
T2 peptide: VPVRPMTY

T3: HIV-1 Nef VY8 variant with Ala at P3 peptide on HLA-B*35:01 (human)
T3 peptide: VPARPMTY

T4: HIV-1 Nef VY8 variant with Phe at P3 peptide on HLA-B*35:01 (human)
T4 peptide: VPFRPMTY

T5: HIV-1 Nef VY8 variant with Met at P3 peptide on HLA-B*35:01 (human)
T5 peptide: VPMRPMTY


Key:
Experiment in all cases: cytokine release
[1] = target: T1, HIV-1 Nef VY8 variant with Leu at P4 …
[2] = target: T2, HIV-1 Nef VY8 variant with Val at P3 …
[3] = target: T3, HIV-1 Nef VY8 variant with Ala at P3 …
[4] = target: T4, HIV-1 Nef VY8 variant with Phe at P3 …
[5] = target: T5, HIV-1 Nef VY8 variant with Met at P3 …

Binder	binding result [1]	binding result [2]	binding result [3]	binding result [4]	binding result [5]
A1-S/B11-J1 (TCR) alpha AV1-1*01 AJ26*01 CDR3: CAVSDNYGQNFVF beta BV11-2*01 BJ1-1*01 CDR3: CASSLDLVSTEAFF	no recognition	–	–	–	–
TCR-139 (A1-T/B11-J1) (TCR) alpha AV1-1*01 AJ26*01 CDR3: CAVTDNYGQNFVF beta BV11-2*01 BJ1-1*01 CDR3: CASSLDLVSTEAFF	no recognition	recognises	recognises	recognises	recognises
H127 (A1-J31/B11) (TCR) alpha AV1-1*01 AJ31*01 CDR3: CAVTSGDARLMF beta BV11-1*01 BJ2-7*01 CDR3: CASSSDIVSYEQYF	–	no recognition	no recognition	no recognition	recognises
